B1: L. longbeachae LeSH (natural protein)
chain: MEAMQKNELNSKIPIIFGLINSYQIHNLLEQHNAKTKESKAVFLIRDSSTYPGLLTISYYCQEQDIVKHIRFGLTDKGWKTAPKPPHEPLKSDSPEIKEKYTLDKIKFERKMKQFINTAKKLFEQHIRAESFKTLIMELKIHEFNLEGLIKPTRSQASQEKHFTDYV

Holding throughout (assay): FP
Experiment [1] deals with Src SH2 TrM (superbinder).
Experiment [2] has as its target L. dumoffii LeSH2 (Legionella dumoffii).
The target in experiment [3] is T1, L. dumoffii LeSH1a (Legionella dumoffii).
For experiment [4], the target named is L. longbeachae LUSH SH2 domain (Ser3-Ser171) (Legionella longbeachae).
Experiment [5] deals with L. pneumophila RavO SH2 domain (Gly212-Asp406) (Legionella pneumophila, UniProt Q5ZWF6 212-406).
Experiment [6] addresses B1.
Experiment [7] addresses L. anisa LeSH2b (Lani_WP_019234638) (Legionella anisa).
Experiment [8] addresses Src SH2 TrM (superbinder). This is another data set of the same source.
The target of experiment [9] is MidT-pTyr324.
Experiment [10] concerns the target Shc1-pTyr239.
For experiment [11], the target named is VCP-pTyr805-tail7.
Experiment [12] deals with EGFR-pTyr1086.
For experiment [13], the target named is Shc1-pTyr317.
The target of experiment [14] is Shc1-pTyr239. The source holds these as a separate data set.
Experiment [15] addresses DnaJ-A1-pTyr381 ∆C peptide (human, UniProt P31689).
For experiment [16], the target named is L. pneumophila LeSH2.
Experiment [17] has as its target L. anisa LeSH1b (Lani_2495) (Legionella anisa).
Experiment [18] has as its target L. pneumophila DoSH C-SH2.
Experiment [19] deals with L. waltersii LeSH5 tandem SH2.
Experiment [20] has as its target wild-type Src SH2 domain (UniProt P12931 151-248).
In experiment [21] the target is T1, L. dumoffii LeSH1a. This is another data set of the same source.

The record followed here is publication PMC6208348 (2018).

Where “and” joins values, the source holds several entries; their conditions need not be identical. Equal entries are not always repeated. Where two headings read alike, the source gives them in different places. Non-standard residues stand in square brackets, D forms with d. No end group written: not given here. pY = N[C@@H](Cc1ccc(OP(=O)(O)O)cc1)C(=O)O; pT = C[C@@H](OP(=O)(O)O)[C@H](N)C(=O)O A value given as a limit tells only on which side of the number the result lay.

As to GG[pT]GG [pThr-containing version of GGpYGG], the Kd in experiment [1], in [2], in experiment [3], in [4], in experiment [5] and in experiment [6] was above 50 µM each time.

Take GG[pY]GG [mini peptide GGpYGG]: the dissociation constant Kd (in general, the free concentration of one partner at which half of the binding sites on the other are occupied at equilibrium, for simple one-to-one binding) in experiment [1] was determined as 1.5 µM; in experiment [7] it was 35.2 µM.

As for YG [pY-G dipeptide (VCP peptide)], the Kd in [2] is 7.43 µM; in experiment [3], above 50 µM; in experiment [8] it was 1.79 µM; in [4], 0.81 µM; in experiment [6], 0.99 µM and 1 µM.

Turning to B1, the dissociation constant Kd came out at 3.7 µM in [9]; 7.1 µM in [10]; 2.2 µM in experiment [11]; 20.4 µM in experiment [12]; 6.71 µM in experiment [13]; 7.15 µM in [14]. In experiment [15], this molecule had a Kd of 2.75 µM.

B2: IL2Rβ pTyr387 peptide (fluorescein-labelled) (peptide)
chain: YFTYDPYSEEDPD
modifications: not fully specified (N-terminus); also: pTyr387, position not given here, fluorescein-labelled
For the molecule B2, the equilibrium dissociation constant (Kd) in experiment [16] was 1.71 µM; in experiment [7], 4 µM; in experiment [17], above 50 µM; in [2] it was 2.94 µM; in [3], above 50 µM; in experiment [18], 23 µM. The Kd in experiment [19] was 18 µM; in experiment [5], 7.57 µM and 7.6 µM; in experiment [20] it was 4.13 µM; in experiment [6], 0.91 µM and 0.9 µM.

B3: DnaJ-A1 pTyr381 peptide (fluorescein-labelled) (peptide)
chain: HYNGEAYEDDEHH
modifications: not fully specified (N-terminus); also: pTyr381, position not given here, fluorescein-labelled
B3: the Kd is 18.7 µM in experiment [7]; above 50 µM in experiment [17]; above 50 µM in experiment [3]; above 50 µM in experiment [18]; 29.2 µM in [19]; 19.2 µM in experiment [5]. Further, in experiment [6], the equilibrium dissociation constant (Kd) is 0.5 µM and 0.53 µM.

B4: Shc1 pTyr317 peptide (acetyl-DPSpYVNVQNL-amide) (peptide)
peptide: Ac-DPS[pY]VNVQNL-NH2
SMILES: CC(=O)N[C@@H](CC(=O)O)C(=O)N1CCC[C@H]1C(=O)N[C@@H](CO)C(=O)N[C@@H](Cc1ccc(OP(=O)(O)O)cc1)C(=O)N[C@H](C(=O)N[C@@H](CC(N)=O)C(=O)N[C@H](C(=O)N[C@@H](CCC(N)=O)C(=O)N[C@@H](CC(N)=O)C(=O)N[C@@H](CC(C)C)C(N)=O)C(C)C)C(C)C
As for B4, the figures for the Kd in experiment [21], in experiment [5] and in [6] were above 50 µM, 1.1 µM and 6.7 µM, respectively.
